Data published in patent US20260132200A1 (Regeneron, published 2026).
Numbering of substitutions follows the chain as printed.

T1: human CD3 expressed on cells (Jurkat, a CD3+ human T-cell line; human T cells) (human, UniProt P07766 23-126; P04234 22-100)
T1 chain 1: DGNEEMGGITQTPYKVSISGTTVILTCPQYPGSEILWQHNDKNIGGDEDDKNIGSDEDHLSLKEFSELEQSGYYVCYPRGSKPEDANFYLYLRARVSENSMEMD
T1 chain 2: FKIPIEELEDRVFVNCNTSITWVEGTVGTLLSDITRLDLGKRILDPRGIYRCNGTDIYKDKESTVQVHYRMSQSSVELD

B1: H2M2690N (antibody, mouse IgG2, V domains shown)
VH: EVQLVESGGGLVQPGRSLRLSCAASGFTFDDYTMHWVRQAPGKGLEWVSGISWNSGSIGYADSVKGRFTISRDNAKKSLYLQMNSLRAEDTALYYCAKDNSGYGHYYYGMDVWGQGTTVTVAS
VL: EIVMTQSPATLSVSPGERATLSCRASQSVSSNLAWYQQKPGQAPRLLIYGASTRATGIPARFSGSGSGTEFTLTISSLQSEDFAVYYCQHYINWPLTFGGGTKVEIK
B2: H2M2774N (antibody, mouse IgG2, V domains shown)
VH: QVQLVESGGGVVQPGRSLRLSCVASGFTFRSYGMHWVRQAPGKGLQWVAMIYYDGKNKYYADSVRGRFTISRDNSKNTLYLQMNSLRAEDTAMYFCARGPGYNWLDPWGQGTLVTVSS
VL: B1 VL with S28R, V29I, I58S, F83V, H90Q, Y91H, I92N
B3: H1M2712N (antibody, mouse IgG1, V domains shown)
VH: B1 VH with R16G, S25T, Y32F, A61V, K77N, H105Y, A122S
VL: B1 VL with Q27H, S31R, L33S, V85I, H90Q, I92N
B4: H2M2708N (antibody, mouse IgG2, V domains shown)
VH: B2 VH with V23A, Y32F, K43R, Q46E, Y53F, Q82E, N84S, M93V
VL: B1 VL with A19V, V29I, S31R, I58V, Y86F, Y87H, H90Q, I92N, W94R, K103E
B5: H1M2692N (antibody, mouse IgG1, V domains shown)
VH: EVQLVESGGGLVQPGGSLRLSCAASGFSFDDYTMHWVRQPPGKGLEWVSGISWNSGSIGYADSVKGRFTISRDNAKNSLYLQMNSLRAGDTALYYCAKDNSGYGYYYYYGMDVWGQGTTVTVSS
VL: B1 VL with H90Q, I92Y
B6: H2M2707N (antibody, mouse IgG2, V domains shown)
VH: B2 VH with V23I, Q46E, K56N, E89D, M93V
VL: B1 VL with H90Q, I92N, W94R
B7: H2M2691N (antibody, mouse IgG2, V domains shown)
VH: B1 VH
VL: B1 VL
B8: H2M2777N (antibody, mouse IgG2, V domains shown)
VH: B2 VH with V23I, Q46E, K56N, E89D, M93V
VL: B1 VL with H90Q, I92N, W94R
B9: H2M2706N (antibody, mouse IgG2, V domains shown)
VH: B2 VH with V23A, G33A, Q46E, I51V, K56N, K58Q, E89D, M93V
VL: B1 VL with S31R, E70D, H90Q, I92N, E105V
B10: H2M2775N (antibody, mouse IgG2, V domains shown)
VH: B2 VH with V23A, Y32F, K43R, Q46E, Y53F, Q82E, N84S, M93V
VL: EIVMTQSPATLSVSPGERVILSCRASQSISRNLAWYQQKPGQAPRLLIYGATTRATGVPARFSGSGSGTEFTLTISSLQSEDFAVFYCQQYNNRPLTFGGGTEVEIK
B11: H2M2711N (antibody, V domains shown)
VH: B2 VH with V23A, Y32F, K43R, Q46E, Y53F, Q82E, N84S, M93V
VL: B10 VL with V19A, I20T, I29V, T52S, Y87H
B12: H2M2710N (antibody, V domains shown)
VH: B2 VH with V23A, Y32F, K43R, Q46E, Y53F, Q82E, N84S, M93V
VL: B10 VL with V19A, I20T, I29V, T52S, Y87H
B13: H2M2885N (antibody, mouse IgG2, V domains shown)
VH: B2 VH with V23A, Y32F, K43R, Q46E, Y53F, Q82E, N84S, M93V
VL: B10 VL
B14: H2M2886N (antibody, mouse IgG2, V domains shown)
VH: B2 VH with V23A, Y32F, K43R, Q46E, Y53F, Q82E, N84S, M93V
VL: B10 VL

Molecular target: T1, human CD3 expressed on cells (Jurkat, a …)
Assay: cell-based or functional assay

Compared with B1, B2 is 11-fold lower in “U937 Cytotoxicity Human T-cells [M] (EC50)” value: 2.79e-11 M for the first, 2.46e-12 M for the second.

First: B3
Second: B4
The “U937 Cytotoxicity Human T-cells [M] (EC50)” value of the first is 96-fold higher: 3.14e-10 M for the first, 3.27e-12 M for the second.

Going from B5 to B6, the “U937 Cytotoxicity Human T-cells [M] (EC50)” value falls from 3.59e-10 M to 7.21e-12 M (50-fold).

Compared with B7, B8 is 4.8-fold lower in “U937 Cytotoxicity Human T-cells [M] (EC50)” value: 2.34e-11 M for the first, 4.86e-12 M for the second.

Going from B9 to B10, the “U937 Cytotoxicity Human T-cells [M] (EC50)” value falls from 7.91e-12 M to 3.38e-12 M (2.3-fold).

B11 and B12 are within 1.5-fold of each other in “U937 Cytotoxicity Human T-cells [M] (EC50)” value: 3.66e-12 M for the first, 3.97e-12 M for the second.

First: B13
Second: B14
The “U937 Cytotoxicity Human T-cells [M] (EC50)” value of the first is 2.2-fold lower: 3.71e-12 M for the first, 8.06e-12 M for the second.
